Experimental data taken from paper PMC10086585 (2023).

Target: human recombinant netrin‐1, on AHC biosensors (human, UniProt O95631 25-604)
Assay: BLI

B1: fibronectin leucine‐rich transmembrane protein (FLRT1), recombinant human (natural protein)
chain: IDSTTCPSVCRCDNGFIYCNDRGLTSIPADIPDDATTLYLQNNQINNAGIPQDLKTKVNVQVIYLYENDLDEFPINLPRSLRELHLQDNNVRTIARDSLARIPLLEKLHLDDNSVSTVSIEEDAFADSKQLKLLFLSRNHLSSIPSGLPHTLEELRLDDNRISTIPLHAFKGLNSLRRLVLDGNLLANQRIADDTFSRLQNLTELSLVRNSLAAPPLNLPSAHLQKLYLQDNAISHIPYNTLAKMRELERLDLSNNNLTTLPRGLFDDLGNLAQLLLRNNPWFCGCNLMWLRDWVKARAAVVNVRGLMCQGPEKVRGMAIKDITSEMDECFETGPQGGVANAAAKTTASNHASATTPQGSLFTLKAKRPGLRLPDSNIDYPMATGDGAKTLAIHVKALTADSIRITWKATLPASSFRLSWLRLGHSPAVGSITETLVQGDKTEYLLTALEPKSTYIICMVTMETSNAYVADETPVCAKAETADSYGPTTTLNQEQNAGPMASLP
Kd: 20.7 nM
